T1: mouse cell surface uPAR (muPAR) (mouse, UniProt P35456 24-298)
T1 construct: whole, on cells; also called mouse uPAR
T1 sequence (looked up): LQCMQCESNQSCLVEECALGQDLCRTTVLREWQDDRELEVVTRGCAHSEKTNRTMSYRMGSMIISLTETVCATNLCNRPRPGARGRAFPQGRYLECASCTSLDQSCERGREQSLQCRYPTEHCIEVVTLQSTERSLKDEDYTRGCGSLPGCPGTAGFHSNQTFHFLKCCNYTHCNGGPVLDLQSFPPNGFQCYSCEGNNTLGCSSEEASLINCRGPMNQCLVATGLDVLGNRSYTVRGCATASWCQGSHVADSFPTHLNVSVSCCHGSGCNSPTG


Biological target: T1, mouse cell surface uPAR (muPAR)
Assay: flow cytometry on undifferentiated mouse podocytes, FITC secondary antibody
Method: Gene expression of mouse uPAR in undifferentiated mouse podocyte cells was undertaken using commercial gene specific qPCR probes for mouse and human uPAR and normalized to 18S housekeeping gene expression using manufacturers RT-qPCR protocol (Thermofisher). Separately, mouse podocytes were incubated with 100 μg/mL concentration of anti-hsuPAR and Proteintech positive control anti-mouse uPAR antibodies at 4° C. for 1 hr. After 2 cycles of wash to remove any unbound antibody, cells were incubated with 10 μg/mL of a goat-anti-human-FITC or goat-anti-mouse-FITC or goat-anti-rabbit-FITC conjugated secondary antibody for 1 hr at 4° C. After washing any unbound secondary antibody, cell suspensions for each sample was gated for single cells and population mean fluorescence intensity was recorded and analyzed on a Luminex Flowsight flow cytometer. Mean fluorescence intensity for test samples was plotted in GraphPad Prism software and compared to positive control sample data.

binding result | Binder
no binding (tested: 100 µg/mL) | WAb0006 (antibody, human IgG1, V domains shown, The listing names these entries 'WAb CD0006'; Fc region identical to WAb0014 (human IgG1, L235A, L236A); human kappa; also called original backup candidate) VH: QVQLVQSGAEVKKPGASVKVSCKASGYTFTSHYIQWVRQAPGQGLEWMGWIDHENGNTIYDQKFQGRVTMTRDTSTSTVYMELSSLRSEDTAVYYCARGTDVDWFVYWGQGTLVTVSS VL: DIQMTQSPSSLSASVGDRVTITCSARSSVSYMYWYQQKPGKAPKLLIYRTSNLASGVPSRFSGSGSGTDFTLTISSLQPEDFATYYCQQYHSYPPTFGGGTKVEIKR
no binding (tested: 100 µg/mL) | WAb0008 (antibody, IgG2a, V domains shown, The listing names these entries 'WAb CD0008'; WAb0006 VH + mIgG2a Fc with L235A and L236A; WAb0006 VL + mouse kappa constant; also called WAb008; mouse IgG2a version of WAb0006) VH: QVQLVQSGAEVKKPGASVKVSCKASGYTFTSHYIQWVRQAPGQGLEWMGWIDHENGNTIYDQKFQGRVTMTRDTSTSTVYMELSSLRSEDTAVYYCARGTDVDWFVYWGQGTLVTVSS VL: DIQMTQSPSSLSASVGDRVTITCSARSSVSYMYWYQQKPGKAPKLLIYRTSNLASGVPSRFSGSGSGTDFTLTISSLQPEDFATYYCQQYHSYPPTFGGGTKVEIK

Biological target: T2, human soluble urokinase plasminogen activator receptor (suPAR) (human, UniProt Q03405 23-303, limits assumed)
T2 construct: also called hsuPAR; human suPAR
Assay: dissociation rate (kdis) on human suPAR; method not stated

T2 sequence (Q03405 23-303 limits assumed): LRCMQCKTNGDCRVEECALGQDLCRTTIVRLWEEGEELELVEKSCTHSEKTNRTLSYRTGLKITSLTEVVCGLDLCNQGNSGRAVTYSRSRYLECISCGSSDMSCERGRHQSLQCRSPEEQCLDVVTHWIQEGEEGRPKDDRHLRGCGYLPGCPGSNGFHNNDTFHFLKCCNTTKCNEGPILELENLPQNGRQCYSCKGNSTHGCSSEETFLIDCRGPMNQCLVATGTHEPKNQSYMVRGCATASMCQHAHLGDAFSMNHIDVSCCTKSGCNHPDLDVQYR

Binder | koff
WAb0014 (antibody, also called original candidate; WAL0921 without P330G) heavy: not shown light: DIQMTQSPSSLSASVGDRVTITCSARQSVSYMYWYQQKPGKAPKLLIYRTSNLASGVPSRFSGSGSGTDFTLTISSLQPEDFATYYCQQYHSYPPTFGGGTKVEIKRTVAAPSVFIFPPSDEQLKSGTASVVCLLNNFYPREAKVQWKVDNALQSGNSQESVTEQDSKDSTYSLSSTLTLSKADYEKHKVYACEVTHQGLSSPVTKSFNRGEC | 2.57e-07 s⁻¹
WAb0008 (antibody, V domains shown, WAb0006 VL + mouse kappa constant; also called WAb CD0008; WAb008) VH: QVQLVQSGAEVKKPGASVKVSCKASGYTFTSHYIQWVRQAPGQGLEWMGWIDHENGNTIYDQKFQGRVTMTRDTSTSTVYMELSSLRSEDTAVYYCARGTDVDWFVYWGQGTLVTVSS VL: DIQMTQSPSSLSASVGDRVTITCSARSSVSYMYWYQQKPGKAPKLLIYRTSNLASGVPSRFSGSGSGTDFTLTISSLQPEDFATYYCQQYHSYPPTFGGGTKVEIK | 2.83e-07 s⁻¹
WAb0013 (antibody, V domains shown, constant regions not tied to this antibody; also called WAb CD0013) VH: QVQLVQSGAEVKKPGASVKVSCKASGYTFTNYYMHWVRQAPGQGLEWMGWIDHENGSTIYAQKFQGRVTMTRDTSTSTVYMELSSLRSEDTAVYYCARGYDVDWFVYWGQGTLVTVSS VL: DIQMTQSPSSLSASVGDRVTITCSARQSVSYMYWYQQKPGKAPKLLIYRTSNLASGVPSRFSGSGSGTDFTLTISSLQPEDFATYYCQQYHSYPPTFGGGTKVEIK | 2.44e-07 s⁻¹
WAb0012 (antibody, V domains shown, constant regions not tied to this antibody; also called WAb CD0012) VH: QVQLVQSGAEVKKPGASVKVSCKASGYTFTGYYMHWVRQAPGQGLEWMGWIDHENGNTIYDQKFQGRVTMTRDTSTSTVYMELSSLRSEDTAVYYCARGYDVDWFVYWGQGTLVTVSS VL: DIQMTQSPSSLSASVGDRVTITCSARQSISYMYWYQQKPGKAPKLLIYRTSNLASGVPSRFSGSGSGTDFTLTISSLQPEDFATYYCQQYHSYPPTFGGGTKVEIK | 2.93e-07 s⁻¹
WAb0011 (antibody, V domains shown, constant regions not tied to this antibody; also called WAb CD0011) VH: QVQLVQSGAEVKKPGASVKVSCKASGYTFTGSYVHWVRQAPGQGLEWMGWIDHENGNTIYDQKFQGRVTMTRDTSTSTVYMELSSLRSEDTAVYYCARGYDVDWFVYWGQGTLVTVSS VL: DIQMTQSPSSLSASVGDRVTITCSARSSVSYMYWYQQKPGKAPKLLIYRTSNLASGVPSRFSGSGSGTDFTLTISSLQPEDFATYYCQQYHSYPPTFGGGTKVEIK | 2.36e-07 s⁻¹
WAb0010 (antibody, V domains shown, constant regions not tied to this antibody; also called WAb CD0010) VH: QVQLVQSGAEVKKPGASVKVSCKASGYTFTGNYVHWVRQAPGQGLEWMGWIDHENGNTIYDQKFQGRVTMTRDTSTSTVYMELSSLRSEDTAVYYCARGYDVDWFVYWGQGTLVTVSS VL: DIQMTQSPSSLSASVGDRVTITCSARSSVSYMYWYQQKPGKAPKLLIYRTSNLASGVPSRFSGSGSGTDFTLTISSLQPEDFATYYCQQYHSYPPTFGGGTKVEIK | 3.89e-07 s⁻¹

Now from value to binder:

koff | Binder
2.97e-07 s⁻¹ | WAb0015 (antibody, V domains shown, constant regions not tied to this antibody; also called WAb CD0015) VH: QVQLVQSGAEVKKPGASVKVSCKASGYTFTNYYIHWVRQAPGQGLEWMGWISPDSGGTKYAQKFQGRVTMTRDTSTSTVYMELSSLRSEDTAVYYCARGYDVDWFVYWGQGTLVTVSS VL: DIQMTQSPSSLSASVGDRVTITCSARSSVSYMYWYQQKPGKAPKLLIYRTSNLASGVPSRFSGSGSGTDFTLTISSLQPEDFATYYCQQYHSYPPTFGGGTKVEIK
3.43e-07 s⁻¹ | WAb0019 (antibody, V domains shown, constant regions not tied to this antibody; also called WAb CD0019) VH: QVQLVQSGAEVKKPGASVKVSCKASGYTFSSYYMHWVRQAPGQGLEWMGWIDHENGNTIYAQKFQGRVTMTRDTSTSTVYMELSSLRSEDTAVYYCARGYDVDWFVYWGQGTLVTVSS VL: DIQMTQSPSSLSASVGDRVTITCSARSSVSYMYWYQQKPGKAPKLLIYRTSNLASGVPSRFSGSGSGTDFTLTISSLQPEDFATYYCQQYHSYPPTFGGGTKVEIK
0.000213 s⁻¹ | WAb0016 (antibody, V domains shown, constant regions not tied to this antibody; also called WAb CD0016) VH: QVQLVQSGAEVKKPGASVKVSCKASGYTFTNYYIHWVRQAPGQGLEWMGWISPSSGGTKYAQKFQGRVTMTRDTSTSTVYMELSSLRSEDTAVYYCARGYDVDWFVYWGQGTLVTVSS VL: DIQMTQSPSSLSASVGDRVTITCSARSSVSYMYWYQQKPGKAPKLLIYRTSNLASGVPSRFSGSGSGTDFTLTISSLQPEDFATYYCQQYHSYPPTFGGGTKVEIK
2.6e-07 s⁻¹ | WAb0018 (antibody, V domains shown, constant regions not tied to this antibody; also called WAb CD0018) VH: QVQLVQSGAEVKKPGASVKVSCKASGYTFTNYYMHWVRQAPGQGLEWMGWIDHENGNTIYDQKFQGRVTMTRDTSTSTVYMELSSLRSEDTAVYYCARGYDVDWFVYWGQGTLVTVSS VL: DIQMTQSPSSLSASVGDRVTITCSASSSISYMYWYQQKPGKAPKLLIYRTSNLASGVPSRFSGSGSGTDFTLTISSLQPEDFATYYCQQYHSYPPTFGGGTKVEIK
3.63e-07 s⁻¹ | WAb0017 (antibody, V domains shown, constant regions not tied to this antibody; also called WAb CD0017) VH: QVQLVQSGAEVKKPGASVKVSCKASGYTFSAYYMHWVRQAPGQGLEWMGWIDHENGNTIYDQKFQGRVTMTRDTSTSTVYMELSSLRSEDTAVYYCARGYDVDWFVYWGQGTLVTVSS VL: DIQMTQSPSSLSASVGDRVTITCRARQSVSYMYWYQQKPGKAPKLLIYRTSNLASGVPSRFSGSGSGTDFTLTISSLQPEDFATYYCQQYHSYPPTFGGGTKVEIK
3.42e-07 s⁻¹ | WAb0020 (antibody, V domains shown, constant regions not tied to this antibody; also called WAb CD0020) VH: QVQLVQSGAEVKKPGASVKVSCKASGYTFTSHYVHWVRQAPGQGLEWMGWIDHENGNTIYDQKFQGRVTMTRDTSTSTVYMELSSLRSEDTAVYYCARGYDVDWFVYWGQGTLVTVSS VL: DIQMTQSPSSLSASVGDRVTITCSARSSVSYMYWYQQKPGKAPKLLIYRTSNLASGVPSRFSGSGSGTDFTLTISSLQPEDFATYYCQQYHSYPPTFGGGTKVEIK

Source: US20250215104A1 (WALDEN BIOSCIENCES, published 2025)
